In PMC9839713, “Arabidopsis DXO1 activates RNMT1 to methylate the mRNA guanosine cap” (Nature Communications, 2023):

Target: T1, His-DXO1 (Arabidopsis thaliana, UniProt Q8RY73 1-544)
T1 construct: also called His-tagged DXO1; source: E. coli BL21 Rosetta, purified (Ni-NTA); not shown: His6, N-terminal, kept
Test: pull-down; GST pull-down: 2 ug GST-RNMT1 with His-DXO1 or His-cDXO1 on GST agarose beads, 20 mM Tris-HCl pH 7.5, 100 mM NaCl, 1 mM DTT, 1 mM EDTA, 1 h; in the presence of RNase A; eluted with 10 mM GSH; blots with anti-His and anti-GST
Details: both partners purified

T1 sequence (Q8RY73 whole entry): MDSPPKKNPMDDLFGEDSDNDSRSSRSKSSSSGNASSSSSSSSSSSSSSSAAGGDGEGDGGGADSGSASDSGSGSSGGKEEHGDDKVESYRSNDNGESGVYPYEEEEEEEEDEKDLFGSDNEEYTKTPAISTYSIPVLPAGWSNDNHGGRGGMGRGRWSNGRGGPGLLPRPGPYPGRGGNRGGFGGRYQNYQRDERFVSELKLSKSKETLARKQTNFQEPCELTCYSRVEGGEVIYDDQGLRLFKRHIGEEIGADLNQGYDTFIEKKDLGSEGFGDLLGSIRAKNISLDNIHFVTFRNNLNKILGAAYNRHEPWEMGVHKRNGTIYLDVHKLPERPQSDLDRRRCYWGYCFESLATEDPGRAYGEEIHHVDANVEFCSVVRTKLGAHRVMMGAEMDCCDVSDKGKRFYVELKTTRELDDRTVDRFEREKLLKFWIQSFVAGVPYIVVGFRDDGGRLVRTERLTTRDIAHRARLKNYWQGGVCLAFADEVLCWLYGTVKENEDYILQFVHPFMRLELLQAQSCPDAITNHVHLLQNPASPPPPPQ

B1: GST-RNMT1 (natural protein, Arabidopsis thaliana, UniProt Q9LHQ7 1-370, looked up)
chain: MKRGFSDSPSSSAPPPSSRFKSNPEGDSQFLEDETTKNFARKVADHYSRRTNQTLEEREASPIIHLKKLNNWIKSVLIQLYARPDDAVLDLACGKGGDLIKWDKARIGYYVGIDIAEGSIEDCRTRYNGDADHHQRRKKFSFPSRLLCGDCFEVELDKILEEDAPFDICSCQFAMHYSWTTEARARRALANVSALLRPGGVFIGTMPDANVIIKKLREAEGLEIGNSVYWIRFGEEYSQKKFKSSSPFGIEYVFHLEDAVDCPEWIVPFNVFKSLAEEYDLELVFVKNSHEFVHEYMKKPEFVELMRRLGALGDGSNDQSTLSADEWEAAYLYLSFVLRKRGESDGARRSGRRKNGKMNLSKDDVLYIDS
notes: The methods name a 'GST-DXO1' fusion in pGEX-4T-1 and RNMT1 in pET28a, while results, legend and pull-down methods use GST-RNMT1; In the functional rows the RNMT1 was the recombinant protein from pET28a (6X His); also called GST-tagged RNMT1; source: E. coli BL21 Rosetta, purified (GST agarose beads); not shown: GST, N-terminal, kept
- binding result: binds
